Results published in the DeepSol protein solubility set.

Assay: soluble on expression in E. coli; label from the status in PepcDB or PDB records
With “MARSRGSSRPISRSRPTQTRSASTMAAPVHPQQQQQPNAYSHPPAAGAQTRQPGMFAQMASTAAGVAVGSTIGHTLGAGITGMFSGSGSDSAPVEQQQQNMANTSGQTQTDQQLGRTCEIDARNFTRCLDENNGNFQICDYYLQQLKACQEAARQY” the “soluble on expression in E. coli” value was “soluble”. For “MARTVFCTRLQKEADGLDFQLYPGELGKRIFDNICKEAWAQWQTKQTMLINEKKLNMMDPEHRKLLEQEMVNFLFEGKEVHIEGYTPPAK”, the “soluble on expression in E. coli” value was “not soluble”. For “MARYTKEDIFRLAKEENVKYIRLQFTDLLGVIKNVEIPVSQLTKALDNKMMFDGSSIEGFVRIEESDMYLYPDLDTWVIFPWTAEKGKVARLICDIYNADGTPFEGDPRNNLKRVLKEMEALGFSDFNLGPEPEFFLFKVDEKGNPTLELNDNGGYFDLAPMDLGENCRRDIVLELEEMGFEIEASHHEVAPGQHEIDFKYANAIRSCDDIQTFKLVVKTIARKHGLHATFMPKPLYGVNGSGMHCNLSLFKNGENVFFDQNGDLQLSDDARHFIAGILKHAPAFTAVANPTVNSYKRLVPGYEAPCYVAWSAQNRSPLVRIPASRGISTRVEVRSVDPAANPYLVMATLLAAGLDGIKNKLTPPAAVDRNIYVMTKEEREEAGIVDLPATLAQALVTLQSNEVISNALGDHLLEHFIEAKEIEWDIFRTQVHQWERDQYMSLY”, the “soluble on expression in E. coli” value was “not soluble”. With “MASDYKDDDDKRRRGMEGAKLSAVRIAVREAPYRQFLGRREPSVVQFPPWSDGKSLIVDQNEFHFDHAFPATISQDEMYQALILPLVDKLLEGFQCTALAYGQTGTGKSYSMGMTPPGEILPEHLGILPRALGDIFERVTARQENNKDAIQVYASFIEIYNEKPFDLLGSTPHMPMVAARCQRCTCLPLHSQADLHHILELGTRNRRVRPTNMNSNSSRSHAIVTIHVKSKTHHSRMNIVDLAGSEGVRRTGHEGVARQEGVNINLGLLSINKVVMSMAAGHTVIPYRDSVLTTVLQASLTAQSYLTFLACISPHQCDLSETLSTLRFGTSAKAAALEHHHHHH” the “soluble on expression in E. coli” value was “soluble”. For “MASEASVRLGVPPGRLWIQRPGIYEDEEGRTWVTVVVRFNPSRREWARASQGSRYEPSITVHLWQMAVHTRELLSSGQMPFSQLPAVWQLYPRRKYRAADSSFWEIADHGQIDSMEQLVLTYQPERKD”, the “soluble on expression in E. coli” value was “not soluble”. For “MASEMKFAWLLAPDTYWDEKKTFITAALESGIDHIVDTADSGRIKKLGNLTLISPDEDADIVLVGRDGEGDGTLELPETLEYSRDIEMASELSESGRQVAAYVEIRSKAHEELARRLGRVVDYLILVGEDWKIIPLENIIADLQEEDVKLIAAVADVDEARVALETLEHGTDGVLIEPADISQIKDIAALLENIESETYELKPATITRIEPIGSGDRVCVDTCSIMGIGEGMLVGSYSQGLFLVHSESLESEYVASRPFRVNAGPVQAYVMVPGGRTRYLSELETGDEVIIVDRDGRSRSAIVGRVKIEKRPLMLVEAEYEGMKVRTLLQNAETIRLVNDKGEPVSVSELGEGDRVLVYFDESARHFGMAIKETIIEKLEHHHHHH”, the “soluble on expression in E. coli” value was “soluble”. With “MASIVFSTIGNPKGYQKVTYEIDGEKFESNVSVLALRDLLKVDKTVVILGISVADVYNCKYADYRSCKECIIQNSKNDLGISESYVVAPNVYQKFKGKPDHYFTYIYYHSLRILEKEGINEVFIDTTHGINYMGVLAKEAIQLAVSAYAAKSEKEVKVSLYNSDPVGKDVSDTVKLHEIEAIKISPLSGLKYVTYQILNKDKNFFNKIFSDSVNAIPRFATALDNGLFIYLSEKDSSLHLKRLEDDLSKDPLLTPSENEINVVYKDMKYALSHALFYVISRFSGNVDLDTLRHYAETYADKVTRAIIENEVDKIEKYQMGSERKLLGEYMKVEGKGFDKRILYAHGGLPYAGTYVYKEKDKVYVTYGDKIDEIERQI” the “soluble on expression in E. coli” value was “soluble”. With “MASKAVILAGGLGTRLSEETIVKPKPMVEIGGKPILWHIMKMYSVHGIKDFIICCGYKGYVIKEYFANYFLHMSDVTFHMAENRMEVHHKRVEPWNVTLVDTGDSSMTGGRLKRVAEYVKDDEAFLFTYGDGVADLDIKATIDFHKAHGKKATLTATFPPGRFGALDIQAGQVRSFQEKPKGDGAMINGGFFVLNPSVIDLIDNDATTWEQEPLMTLAQQGELMAFEHPGFWQPMDTLRDKVYLEGLWEKGKAPWKTWE” the “soluble on expression in E. coli” value was “soluble”. For “MASKKISLTKPKYQQIAVDVAEKIAEGKLHVGDKIHARSTLANQYQVSPETARKAIIVLVDLEIVKAKHGSGFYVASKEKAQDFVTQYQDVQTIAEIKEELLDSVAKQKEELTHFSSILDTLVEQTKRFDSFNPMNPYSLVLTEEAAYLEATISEMNFWQNTSATIIAIKHKEELLVSPGPYAKISLNDTLYFVGHDESTLQRVQNFFYP”, the “soluble on expression in E. coli” value was “not soluble”. With “MASKVYDPEQRKRMITGPQWWARCKQMNVLDSFINYYDSEKHAENAVIFLHGNATSSYLWRHVVPHIEPVARCIIPDLIGMGKSGKSGNGSYRLLDHYKYLTAWFELLNLPKKIIFVGHDWGAALAFHYAYEHQDRIKAIVHMESVVDVIESWDEWPDIEEDIALIKSEEGEKMVLENNFFVETVLPSKIMRKLEPEEFAAYLEPFKEKGEVRRPTLSWPREIPLVKGGKPDVVQIVRNYNAYLRASDDLPKLFIESDPGFFSNAIVEGAKKFPNTEFVKVKGLHFLQEDAPDEMGKYIKSFVERVLKNEQVDHHHHHH” the “soluble on expression in E. coli” value was “soluble”. In the case of “MASLATSISGSFRILVKSSSTRNGFPVISDQNPSFVLFANKRRHISRTAIFHRSAISGSSQGEKISPLASGVSSGLYSAQTFDLTPQNVDLVLEDVRPFLISDGGNVDVVSVEDGVVSLKLQGACTSCPSSSTTMTMGIERVLKEKFGDALKDIRQVFDEEVKQITVEVSEASF”, the “soluble on expression in E. coli” value is reported as “not soluble”. For “MASLIQVRDLLALRGRMEATQISHTLHAPQPMIDAMLNQLEIMGKAVRIPEEPDGCLSGSCKSCPEGKACLREWWALR”, the “soluble on expression in E. coli” value was “not soluble”. In the case of “MASNDPGNEVSSYSPTSPSYVKFFTQSNLEKLPKYKEKKAASAKQTAPNNSNGGSEEEITCALDYLIPPPMPKNQQYRAFGSIW”, the “soluble on expression in E. coli” value is reported as “soluble”. With “MASPLRFDGRVVLVTGAGGGLGRAYALAFAERGALVVVNDLGGDFKGVGKGSSAADKVVEEIRRRGGKAVANYDSVEAGEKLVKTALDTFGRIDVVVNNAGILRDRSFSRISDEDWDIIQRVHLRGSFQVTRAAWDHMKKQNYGRIIMTASASGIYGNFGQANYSAAKLGLLGLANTLVIEGRKNNIHCNTIAPNAGSRMTETVMPEDLVEALKPEYVAPLVLWLCHESCEENGGLFEVGAGWIGKLRWERTLGAIVRKRNQPMTPEAVRDNWVKICDFSNASKPKSIQESTGGIIEVLHKIDSEGISQNHTGQVASAD” the “soluble on expression in E. coli” value was “soluble”. With “MASQLTDAFARKFYYLRLSITDVCNFRCTYCLPDGYKPSGVTNKGFLTVDEIRRVTRAFARLGTEKVRLTGGEPSLRRDFTDIIAAVRENDAIRQIAVTTNGYRLERDVASWRDAGLTGINVSVDSLDARQFHAITGQDKFNQVMAGIDAAFEAGFEKVKVNTVLMRDVNHHQLDTFLNWIQHRPIQLRFIELMETGEGSELFRKHHISGQVLRDELLRRGWIHQLRQRSDGPAQVFCHPDYAGEIGLIMPYEKDFCATCNRLRVSSIGKLHLCLFGEGGVNLRDLLEDDTQQQALEARISAALREKKQTHFLHQNNTGITQNLSYIGGLEHHHHHH” the “soluble on expression in E. coli” value was “not soluble”. For “MASQNRDPAATSVAAARKGAEPSGGAARGPVGKRLQQELMTLMMSGDKGISAFPESDNLFKWVGTIHGAAGTVYEDLRYKLSLEFPSGYPYNAPTVKFLTPCYHPNVDTQGNISLDILKEKWSALYDVRTILLSIQSLLGEPNIDSPLNTHAAELWKNPTAFKKYLQETYSKQVTSQEP”, the “soluble on expression in E. coli” value was “soluble”. With “MASSSSAALRPFGTARLTPGRQTGRQTQQQISAPEPMIAIALSDMEYLMRSARSSRSSGRSERQPGCTCCCHIAAGVTVIPRVARFSIEGGLSTHTLMNHSDNRIAVKITCSDNNMYRVTPVYATVEPGQSLPLHIARITSDLIKRDRLCVNILEADGNKEAREIFKKNANTRAPASINMALEATNDNQNHHHQE” the “soluble on expression in E. coli” value was “not soluble”. With “MASTNCVSIQKRDILRGSGSTTWFDVLLEKGSCVTIVADDRPTVDIWLDRITHESPIAGREYCMRVDISGLKIATRCPTLGEAYLSEEHTEDYVCKRGFSDRGWGNGCGLFGKGSIVGCVKTTCKSSGIAKSYSYDIPKVKYVISTEVHKGELISGNVSASVVSATFSSEAEKHSMELEDYGRLEFTCRVVSGSNLGSVRILEIDNHYFNVHEDWLLDLPLPWRIPDGHWHDLGELIAFKEPHAVKMVAQAYGDQRASLLKSLVKAEEIAKSGNSYYLPGGHVDCRVSLVNLKLKGTTYPYCGDSFVWKRRPTATHHGTVAMEVTYQGTDVPCKVSVIVEKDGQNGGNAGSLITSNPIITAQGSSVFLELEVPLGFSTIKVGAAKQQWRQDGSSIGKALETHHHHHH” the “soluble on expression in E. coli” value was “not soluble”. For “MASWSHPQFEKGASLDSPTFGCTDSPVRRERGQKAVFCGLTSIVWLHRKMQDAFFLVVGSRTCAHLLQAAAGVMIFAEPRFGTAVLEEQDLAGLADAHKELDREVAKLLERRPDIRQLFLVGSCPSEVLKLDLDRAAERLSGLHAPHVRVYSYTGSGLDTTFTQGEDTCLAAMVPTLDTTEAAELIVVGALPDVVEDQCLSLLTQLGVGPVRMLPARRSDIEPAVGPNTRFILAQPFLGETTGALERRGAKRIAAPFPFGEEGTTLWLKAVADAYGVSAEKFEAVTAAPRARAKKAIAAHLETLTGKSLFMFPDSQLEIPLARFLARECGMKTTEIATPFLHKAIMAPDLALLPSNTALTEGQDLEAQLDRHEAINPDLTVCGLGLANPLEAKGHATKWAIELVFTPVHFYEQAGDLAGLFSRPLRRRALLNGGAA”, the “soluble on expression in E. coli” value was “soluble”. With “MATATPVPPRMGSRAGGPTTPLSPTRLSRLQEKEELRELNDRLAVYIDKVRSLETENSALQLQVTEREEVRGRELTGLKALYETELADARRALDDTARERAKLQIELGKCKAEHDQLLLNYAKKESDLNGAQIKLREYEAALNSKDAALATALGDKKSLEGDLEDLKDQIAQLEASLAAAKKQLADETLLKVDLENRCQSLTEDLEFRKSMYEEEINETRRKHETRLVEVDSGRQIEYEYKLAQALHEMREQHDAQVRLYKEELEQTYHAKLENARLSSEMNTSTVNSAREELMESRMRIESLSSQLSNLQKESRACLERIQELEDLLAKEKDNSRRMLTDKEREMAEIRDQMQQQLNDYEQLLDVKLALDMEISAYRKLLQGEEERLKLSPSPSSRVTVSRASSSRSVRTTRGKRKRVDVEESEASSSVSISHSASATGNVCIEEIDVDGKFIRLKNTSEQDQPMGGWEMIRKIGDTSVSYKYTSRYVLKAGQTVTIWAANAGVTASPPTDLIWKNQNSWGTGEDVKVILKNSQGEEVAQRSTVFKTTIPEEEEEEEEAAGVVVEEELFHQQGTPRASNRSCAIM” the “soluble on expression in E. coli” value was “soluble”. For “MATDTTVQLRAGWQGRFYEDFAVGDVYKHPYGRTVTETDNVWFTNLTMNANPMHFNAAYASGTEFDERLVNGLFVIALSVGMSVVDVSANATANLGYDDIQHHAPVFHGDTLFAESEVLSKRESESRPHVGMVTTELRTYTQDGELVLSLERTPMVRKRGAADPLEHHHHHH”, the “soluble on expression in E. coli” value was “not soluble”. In the case of “MATKVYIVYYSMYGHVEKLAQEIRKGAASVDGVEAILWQVPETLQEDVLSKMSAPPKSDAPIITPNELAEADGFIFGFPTRFGMMAAQFKAFLDATGGLWRTQQLAGKPAGIFYSTGSQGGGQETTALTAITQLVHHGMIFVPIGYTFGAGMFEMENVKGGSPYGAGTFAGDGSRQPTELELGQAFHQGKYIAAISKKLKGPAAA”, the “soluble on expression in E. coli” value is reported as “soluble”.
